Patent CN111995674A (INST MILITARY MEDICINE ACADEMY MILITARY SCIENCES PLA, dated 2020)

Molecular target: SARS-CoV-2 Spike蛋白 (去除末端19个氨基酸), 新冠假病毒表面 (SARS-CoV-2, UniProt P0DTC2 14-1254)
Assay: cell-based or functional assay

B1: 人鼠嵌合全抗体mhC3 (antibody, V domains shown)
VH: EVQLVESGGDLVKPGGSLKLSCAASGFTFNTYAMNWVRQTPGKGLEWVARIRSKSNNYATYYADSVKDRFTISRDDSQSMLYLQMNNLKTEDTAMYYCVTPYYGNYADWFTYWGQGTSVTVSS
VL: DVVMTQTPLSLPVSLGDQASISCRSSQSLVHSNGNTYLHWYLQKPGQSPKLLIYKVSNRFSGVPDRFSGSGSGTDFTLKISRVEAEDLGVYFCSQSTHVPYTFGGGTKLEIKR
notes: also called mhC3抗体; C3 (图5、图6)
中和新冠假病毒 EC50 (luciferase, Huh7细胞): 0.223 µg/mL
